The numbers were not newly measured in publication PMC10218885, which cites them from elsewhere.

What is called pKa is the pH at which an ionisable group is half protonated.

Targets include Tyr42 (UniProt position 42, GNILQYNAAEG); Tyr94 (UniProt position 94, NTMFEYTFDYQ); Tyr76 (UniProt position 76, DSPEFYGKFKE); Tyr118 (UniProt position 118, LSGDSYWVFVK); Tyr98 (UniProt position 98, EYTFDYQMTPT).
Experiment in all cases: NMR

For the substance “Photoactive yellow protein (PYP) (Stated in the article as Halobacterium halobium; the PYP of the cited study is from Halorhodospira halophila (formerly Ectothiorhodospira halophila))”, the pKa in the data set with Tyr42 is over 13; with Tyr94, over 13; with Tyr76, 10.2–10.3; in the data set with Tyr118, 11.4–12.0; with Tyr98, 10.2–10.3.
